Tested on: MS2 coat protein
Assay: apparent KD of MS2 coat protein; designed switch direction (-1 OFF switch, 1 ON switch): -1; higher = weaker reporter binding
In short: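 The apparent KD reported per design is the median over clusters of curve fits to normalised cluster fluorescence. The RNA switches were transcribed on Illumina chips by stalled E. coli RNA polymerase. SNAP-549-labelled MS2 coat protein was titrated from 0.7 or 1.5 nM, doubling up to 3 µM, in Tris-HCl pH 7.5 buffer containing KCl, MgCl2, BSA, DTT, tRNA and Tween-20, with no input, 200 uM small-molecule ligand, or an oligonucleotide input.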

[1] = input ligand: microRNA oligo, concentration not stated
[2] = Eterna round: R95, input ligand: FMN 200 uM
[3] = Eterna round: R95, input ligand: microRNA oligo, concentration not stated
[4] = Eterna round: R95, input ligand: none

Sequence: UAUUGCAAGUGAGGAUAUGACAUGAGGAUCACCCAUGUAAAGGGAGUUGGCUAUAUAGCAAGAUAUCAGAAGGCACAACUGUAU [JR_ExcNG2_Sub005] (Eterna round: R96, puzzle: Exclusion NG 2)
- apparent KD of MS2 coat protein (input ligand: FMN 200 uM): 76.7 nM
- apparent KD of MS2 coat protein [1]: 25.9 nM
- apparent KD of MS2 coat protein (input ligand: none): 64.3 nM

Sequence: AGUAGUUGUUUCCGUUCUUACAUGAGGAUCACCCAUGUUUCUUGUCGUGCACGCGAUGCUCGUCAGACUACCAGAUG [salish99_TOv1_r3_058] (puzzle: Sensor v3, turn-off variant 1)
- apparent KD of MS2 coat protein [2]: 52.5 nM
- apparent KD of MS2 coat protein [3]: 69.9 nM
- apparent KD of MS2 coat protein [4]: 61.9 nM

Sequence: GAAUGAGAGCAGGAUAUCUUAUAAAUGUAUGAAAGAGAAGGGCUCACAUGAGGAUCACCCAUGUGGUCCUAGAA [jl-ex6-4.78 jandersonlee mod] (Eterna round: R97, puzzle: Exclusion 6)
- apparent KD of MS2 coat protein (input ligand: FMN 200 uM): 506 nM
- apparent KD of MS2 coat protein (input ligand: none): 36.9 nM

Sequence: AGCUAGUCAGGAUAUACGAACAUGUCAAAAGACGUGAAGGGACAUGAGGAUCACCCAUGUAGAAGGGACUAGCC [salish99-Ex2-17] (Eterna round: R96, puzzle: Exclusion 2)
- apparent KD of MS2 coat protein [1]: 23.8 nM

Sequence: UAGUAGCAAGGAUAUACAGAGGAGAGGAAAGCAAGAGGAGGACAUGAGGAUCACCCAUGUAGAAGGUGCAGAGA [JR_Exclu2_Sub020] (puzzle: Exclusion 2)
- apparent KD of MS2 coat protein [2]: 74.6 nM
- apparent KD of MS2 coat protein [3]: 73.9 nM
- apparent KD of MS2 coat protein [4]: 66.6 nM

Sequence: AGCGUGUGAGAAGGAUAUCGACCCGAGACAGAUUGAGAAGGUCUCACAUGAGGAUCACCCAUGUGGACAGGGCGAGCUCCAGUC [Eternabot solution 11] (Eterna round: R96, puzzle: Exclusion NG 1)
- apparent KD of MS2 coat protein (input ligand: FMN 200 uM): 28.3 nM
- apparent KD of MS2 coat protein [1]: 14.6 nM
- apparent KD of MS2 coat protein (input ligand: none): 23.4 nM

Sequence: AUAAAUCAUGUAGGAUAUGCGUGGCAAAGCUAUGCAGAAGGACAUGAGGAUCACCCAUGUGCUUCCGUCUGCGUACAGACGGUA [Mat - Exclusion NG 1 - Mod of JL - D33] (Eterna round: R96, puzzle: Exclusion NG 1)
- apparent KD of MS2 coat protein (input ligand: FMN 200 uM): 114 nM
- apparent KD of MS2 coat protein [1]: 80.7 nM
- apparent KD of MS2 coat protein (input ligand: none): 107 nM

Sequence: CCUAUGUGAGGAUAUCACUGGUCUGCUCACUAGAUGAUCAGUGAGAAGGCACAUGAGGAUCACCCAUGUCAGUG [Exclusion 4 - Mod Brourd Ex 4-3 - 53] (puzzle: Exclusion 4)
- apparent KD of MS2 coat protein [3]: 92.9 nM

Sequence: ACAAGCUUUUAGUUCGUCUUAUACACUCCUAAUAAGAAAACAUGAGGAUCACCCAUGUAAGAAAUAAGAACUCAUGU [Sesor Array 2 - Jieux - Sensor v3, turn-off variant 2] (puzzle: Sensor v3, turn-off variant 2)
- apparent KD of MS2 coat protein [2]: 151 nM
- apparent KD of MS2 coat protein [3]: 396 nM
- apparent KD of MS2 coat protein [4]: 209 nM

Sequence: AAAUACAAAGGAUAUACAUGAGGAUCACCCAUGUAGGUCAAUGCGCGGGCGAUGCCACGUAGAAGGUUGAAUAC [EX3 C.12] (Eterna round: R97, puzzle: Exclusion 3)
- apparent KD of MS2 coat protein (input ligand: FMN 200 uM): 27.5 nM
- apparent KD of MS2 coat protein (input ligand: none): 24.1 nM

Sequence: GGAUAGUGAGGAUAUCGAUGUUAGGAGGAUGAGGUAGGAUGCGAGAAGGCACAUGAGGAUCACCCAUGUAUGGU [JR_Exclu4_Sub070] (puzzle: Exclusion 4)
- apparent KD of MS2 coat protein [3]: 38.4 nM

Sequence: CCGAAGGCAGGAUAUACAGGACAGACCCAUCAGAGCAGACUACAUGAGGAUCACCCAUGUAGAAGGGCCUUCAA [Eternabot (Original) Solution 26] (Eterna round: R97, puzzle: Exclusion 2)
- apparent KD of MS2 coat protein (input ligand: FMN 200 uM): 154 nM
- apparent KD of MS2 coat protein (input ligand: none): 18.7 nM

Sequence: CCCUCACUUGAGGAUCACCCAAGUCAGGAUAUCUCACCCGUCCUGCAAGACGGGUCACAGAGAAGGGACUAAAA [Araatra] (Eterna round: R97, puzzle: Exclusion 1)
- apparent KD of MS2 coat protein (input ligand: FMN 200 uM): 69 nM
- apparent KD of MS2 coat protein (input ligand: none): 21.9 nM

Sequence: GUUUGCACGCUGCGGUCCUACAUGAGGAUCACCCAUGUGGUCUGGUGGCGUGGGUCGCCGGACUUGGCUCGUCUUGG [salish99_S_TOV1_R5_039] (Eterna round: R97, puzzle: Sensor, turn-off variant 1)
- apparent KD of MS2 coat protein (input ligand: FMN 200 uM): 15 nM
- apparent KD of MS2 coat protein (input ligand: none): 14.8 nM

Sequence: GAAAUGGUAGGAUAUACGAAAAAAAAGGGUAGAAAAAAAACACAUGAGGAUCACCCAUGUAGAAGGACCAAAAG [salish99_ex2_r3_088] (puzzle: Exclusion 2)
- apparent KD of MS2 coat protein [2]: 71.4 nM
- apparent KD of MS2 coat protein [3]: 31.9 nM
- apparent KD of MS2 coat protein [4]: 28.4 nM

Sequence: AGUGUGUGGCAGGAUAUUCUAAUCUUGAGGAGGGAAGAAGGGUCUACAUGAGGAUCACCCAUGUAAGCGGUUGA [Ex6 #41] (Eterna round: R97, puzzle: Exclusion 6)
- apparent KD of MS2 coat protein (input ligand: FMN 200 uM): 142 nM
- apparent KD of MS2 coat protein (input ligand: none): 33.6 nM

Sequence: CUUUCGUCUGUGGGUGGUGACAUGAGGAUCACCCAUGUUUUGCUCGUCUUGUGCCGGGCCCGGCGCCCGGGCCCGGC [-38.7, -62.6, A 8%] (Eterna round: R97, puzzle: Sensor, turn-off variant 1)
- apparent KD of MS2 coat protein (input ligand: FMN 200 uM): 861 nM
- apparent KD of MS2 coat protein (input ligand: none): 992 nM

Sequence: GUCCUCAUGACAUGAGGAUCACCCAUGUAUUAUUUGUUAACUGAGGAUAUACUCUUAAUGUUUAUGUAGAAGGCAGAUUCGGUC [JR_ExcNG3_Sub019] (Eterna round: R96, puzzle: Exclusion NG 3)
- apparent KD of MS2 coat protein (input ligand: FMN 200 uM): 51.6 nM
- apparent KD of MS2 coat protein [1]: 37.8 nM
- apparent KD of MS2 coat protein (input ligand: none): 40.7 nM

Sequence: AGCUGUGGCCGAGGAUAUCUAUCUCAAAUAACCGAAAUAUAAUCGGACAUGAGGAUCACCCAUGUAGAGAAGGCGGUCUCAGCA [Eli eng2 - 089] (Eterna round: R96, puzzle: Exclusion NG 2)
- apparent KD of MS2 coat protein [1]: 11.4 nM

Sequence: AAUAGGACAGGAUAUCCGGAGUCGAACAUGAGGAUCACCCAUGUGAUGAGGAUGUUCGCUGGAGAAGGGUCGGGCU [Teonus] (puzzle: Exclusion 5)
- apparent KD of MS2 coat protein [2]: 83.9 nM
- apparent KD of MS2 coat protein [3]: 56.5 nM
- apparent KD of MS2 coat protein [4]: 53.7 nM

Sequence: UUAUCUACUGAGGAUAUUAUAUUACCCGACUGAUAAGAAGGCAGUACAUGAGGAUCACCCAUGUGGGUAGCCAU [Polaris11] (Eterna round: R97, puzzle: Exclusion 6)
- apparent KD of MS2 coat protein (input ligand: FMN 200 uM): 23.2 nM
- apparent KD of MS2 coat protein (input ligand: none): 20.8 nM

Sequence: AUGUACCGGUGAGGAUAUUUUUAAUAGAGCUUUAUGAUAUACAUGAGGAUCACCCAUGUUACGUUAAAGAAGGCAUCGGAUUAA [Mat - Exclusion NG 2 - Mod of JL - D96] (Eterna round: R96, puzzle: Exclusion NG 2)
- apparent KD of MS2 coat protein [1]: 14 nM

Sequence: ACAUGGGAGCGAGGAUAUAGCCCAUGUGAAGAACUAGAAGGCGCAGACAUGAGGAUCACCCAUGUGUUCAUGAGGAGGUGGACA (Eterna round: R96, puzzle: Exclusion NG 1)
- apparent KD of MS2 coat protein (input ligand: FMN 200 uM): 72.7 nM
- apparent KD of MS2 coat protein [1]: 42.4 nM
- apparent KD of MS2 coat protein (input ligand: none): 69.4 nM

Sequence: CACCAUCGUGUAAGGAUAUCGAGGCUUAGCGGGUGUGAGAAGGUACAUGAGGAUCACCCAUGUUACGAUUUGCG [Eternabot (L1) Solution 77] (Eterna round: R97, puzzle: Brourd's mod of Exclusion 4)
- apparent KD of MS2 coat protein (input ligand: FMN 200 uM): 28.8 nM
- apparent KD of MS2 coat protein (input ligand: none): 25.6 nM

Sequence: CGUCAGUGAGGAUAUGGUUUCGUGUACAUGAGGAUCACCCAUGUUUCUUGGGACUAAUUACUAGAAGGCACUGACG [JR_Ex5_Sub033] (Eterna round: R97, puzzle: Exclusion 5)
- apparent KD of MS2 coat protein (input ligand: FMN 200 uM): 21.2 nM
- apparent KD of MS2 coat protein (input ligand: none): 14 nM

Sequence: AGGUCACAUGAGGAUCACCCAUGUGAGGAUAUAGACUCAAGAGCUUCGGCUCUCAAGUUUAGAAGGCGCAAUGA [EX1 #52] (Eterna round: R97, puzzle: Exclusion 1)
- apparent KD of MS2 coat protein (input ligand: FMN 200 uM): 31.7 nM
- apparent KD of MS2 coat protein (input ligand: none): 31.2 nM

Sequence: UUUAUGUCAGGAUAUACAUGAGGAUCACCCAUGUAUAUCUUAAAGUAUACAUGGGAAUGUAGAAGGGACGUCCU [LRO-Excl05-29-mod of Pseudoloop5 by Omei] (Eterna round: R97, puzzle: Exclusion 3)
- apparent KD of MS2 coat protein (input ligand: FMN 200 uM): 31.3 nM
- apparent KD of MS2 coat protein (input ligand: none): 30.2 nM

Sequence: AUGCUCCGUGUAGGAUAUCGCCGUACUACUCGGCGAGAAGGACAUGAGGAUCACCCAUGUAUGUUAUUAUCACGUGUGGCGCGC [Design 49] (Eterna round: R96, puzzle: Exclusion NG 1)
- apparent KD of MS2 coat protein (input ligand: FMN 200 uM): 45.7 nM
- apparent KD of MS2 coat protein [1]: 14 nM
- apparent KD of MS2 coat protein (input ligand: none): 19.7 nM

Sequence: UUCACAUGGACAUAAGAUCACAUGAGGAUCACCCAUGUGAAUAACAAGCUUUUUGUUCGUCUUAUGUCCAAUAAUAU [Stov1/14-B3] (Eterna round: R97, puzzle: Sensor, turn-off variant 1)
- apparent KD of MS2 coat protein (input ligand: FMN 200 uM): 13.9 nM
- apparent KD of MS2 coat protein (input ligand: none): 12.2 nM

Sequence: UAUUAGCAAGUGAGAUCCCACAUGAGGAUCACCCAUGUGCUCGUCUUUUAACGUACUGUGAGGAAACUCACGGUACG [Sensor-V1 #82] (Eterna round: R97, puzzle: Sensor, turn-off variant 1)
- apparent KD of MS2 coat protein (input ligand: FMN 200 uM): 62.1 nM
- apparent KD of MS2 coat protein (input ligand: none): 67.1 nM

Sequence: UGCUACGGAGGAUAUACAUGAGGAUCACCCAUGUGAUAGAUUAUGCCGAGAGGCUAGUGUAGAAGGCCGUAGCU [jl-ex3-4.14 jl mod] (Eterna round: R97, puzzle: Exclusion 3)
- apparent KD of MS2 coat protein (input ligand: FMN 200 uM): 683 nM
- apparent KD of MS2 coat protein (input ligand: none): 189 nM

Sequence: AAGAAACAUGAGGAUCACCCAUGUGAGGAUAUGACAAAGAAAAGAAAAGAAAGAAGAAUCAGAAGGCACAAAGG [salish99-ex1_r3_033] (puzzle: Exclusion 1)
- apparent KD of MS2 coat protein [2]: 121 nM
- apparent KD of MS2 coat protein [3]: 83.1 nM
- apparent KD of MS2 coat protein [4]: 96.6 nM

Sequence: AUGAUACAUGAGGAUCACCCAUGUGAGGAUAUGAAGUUAUAAUACAUACUAUACAUCUUCAGAAGGCAUAUGUG [E1 S1 6/16] (Eterna round: R97, puzzle: Exclusion 1)
- apparent KD of MS2 coat protein (input ligand: FMN 200 uM): 229 nM
- apparent KD of MS2 coat protein (input ligand: none): 109 nM

Sequence: UAUUUGCAAGCGAGAUCCCACAUGAGGAUCACCCAUGUUCUUUGAAAGUACAGAAUUACUGUACAAGCUCGUCUUAU [Winner reversed engineered 31] (Eterna round: R97, puzzle: Sensor, turn-off variant 1)
- apparent KD of MS2 coat protein (input ligand: FMN 200 uM): 62.6 nM
- apparent KD of MS2 coat protein (input ligand: none): 73.4 nM
